Measurements from US20240382614A1, “Self-Assembling Nanoparticles Based On Amphiphilic Peptides for Drug Delivery Applications” (Barinthus Biotherapeutics North America, Inc., priority 2021, published 2024).
Each block holds one compound with its values, some of them ahead of it.

What was measured:
[1] = test system: coculture of antigen presenting cells and CD4 T cell clones (“OT-II cells”); assay: IFNγ and IL-17 in supernatant of coculture of antigen presenting cells and OT-II CD4 T cell clones; assay type: cell-based; conditions: D1 in particles of Compound 113 with D2 Compound 166, with or without D3 Compound 4 (Table 10)
Description: The cell culture supernatant was assessed for the cytokines IFNγ and IL-17 to assess for the proliferation of Th1- and Th17-type CD4 T cells, respectively (FIG. 11).

[2] = Turbidity (OD 490 nm) of particle formulations; assay type: physicochemical; conditions: Table 15; no 2nd amphiphile
Description: It was unknown how the surface group (SG) would impact the tolerability of amphiphiles of formula S-B-H-D carrying an immunostimulant. Therefore, to evaluate the impact of surface group composition on tolerability, amphiphiles of varying SG and drug molecule composition were prepared and evaluated in mice (Table 15 and FIG. 14).

[3] = test system: coculture of antigen presenting cells and CD4 T cell clones (“OT-II cells”); assay: CD4 T cell induction in coculture of antigen presenting cells and OT-II CD4 T cell clones; assay type: cell-based; conditions: D1 in particles of Compound 113 with D2 Compound 166 and D3 MDP, TDB, MPL, LPS or Compound 4 (Table 9, FIG. 10)
[4] = Solubility and loading of mTOR inhibitors in nanoparticle micelles of amphiphiles S-B-[U]-H; assay type: physicochemical; conditions: admixed with amphiphile Compound 113
[5] = test system: T1, Ac-A′SK(Ac)SB-AMC (Compound 18)
T1 sequence: XSKSX

[6] = test system: T2, Ac-A′SK(Ac)SnL-AMC (Compound 24)
T2 sequence: XSKSX

[7] = test system: T3, Ac-A′SK(Ac)VB-AMC (Compound 16)
T3 sequence: XSKVX

[8] = test system: T4, Ac-A′SK(Ac)VnL-AMC (Compound 22)
T4 sequence: XSKVX

[9] = test system: T5, Ac-A′SKSB-AMC (Compound 19)
T5 sequence: XSKSX

[10] = test system: T6, Ac-A′SKSnL-AMC (Compound 25)
T6 sequence: XSKSX

[11] = test system: T7, Ac-A′SKVB-AMC (Compound 17)
T7 sequence: XSKVX

[12] = test system: T8, Ac-A′SKVnL-AMC (Compound 23)
T8 sequence: XSKVX

[13] = test system: T9, Ac-A′SPVB-AMC (Compound 15)
T9 sequence: XSPVX

[14] = test system: T10, Ac-A′SPVnL-AMC (Compound 21)
T10 sequence: XSPVX

[15] = test system: T11, Ac-A′VB-AMC (Compound 14)
T11 sequence: XVX

[16] = test system: T12, Ac-A′VnL-AMC (Compound 20)
T12 sequence: XVX

Compound: COc1ccc(-c2ccc3c(N4CCOC[C@@H]4C)nc(N4CCOC[C@@H]4C)nc3n2)cc1CO [AZD8055]
suppression of Th1-type CD4 T cell response (IFNγ) [1]: substantially improved T cell response suppression as compared with Rapa, CC223 and OSI-027

Turbidity [2]: 0.039
Compound: CCOCc1nc2c(N)nc3ccccc3c2n1CC(C)(C)O [Compound R848]

Compound: CC(C)n1nc(-c2ccc3oc(N)nc3c2)c2c(N)ncnc21 [INK-128]
suppression of Th1-type CD4 T cell response (IFNγ) [1]: substantially improved T cell response suppression as compared with Rapa, CC223 and OSI-027

solubility in DMSO and aqueous buffer [4]: markedly improved the solubility
Compound: CCC(=O)N1CCN(c2ccc(-n3c(=O)ccc4cnc5ccc(-c6cnc7ccccc7c6)cc5c43)cc2C(F)(F)F)CC1 [Torin 1]
suppression of T cell responses against D2 [3]: greater T cell suppression as compared with Rapamycin | suppression of Th1-type CD4 T cell response (IFNγ) [1]: substantially improved T cell response suppression as compared with Rapa, CC223 and OSI-027

Compound: CNC(=O)Nc1ccc(-c2nc(N3CC4CCC(C3)O4)c3cnn(C4CCC5(CC4)OCCO5)c3n2)cc1 [WYE132]
suppression of Th1-type CD4 T cell response (IFNγ) [1]: substantially improved T cell response suppression as compared with Rapa, CC223 and OSI-027

Compound: Cathepsin B (Sino Biological)
percent of peptide-AMC that is cleaved [5]: norleucine (nL) and alpha-amino butyric (B or aBut) are tolerated at the P1 position | percent of peptide-AMC that is cleaved [6]: norleucine (nL) and alpha-amino butyric (B or aBut) are tolerated at the P1 position | percent of peptide-AMC that is cleaved [7]: norleucine (nL) and alpha-amino butyric (B or aBut) are tolerated at the P1 position | percent of peptide-AMC that is cleaved [8]: norleucine (nL) and alpha-amino butyric (B or aBut) are tolerated at the P1 position | percent of peptide-AMC that is cleaved [9]: norleucine (nL) and alpha-amino butyric (B or aBut) are tolerated at the P1 position | percent of peptide-AMC that is cleaved [10]: norleucine (nL) and alpha-amino butyric (B or aBut) are tolerated at the P1 position | percent of peptide-AMC that is cleaved [11]: norleucine (nL) and alpha-amino butyric (B or aBut) are tolerated at the P1 position | percent of peptide-AMC that is cleaved [12]: norleucine (nL) and alpha-amino butyric (B or aBut) are tolerated at the P1 position | percent of peptide-AMC that is cleaved [13]: norleucine (nL) and alpha-amino butyric (B or aBut) are tolerated at the P1 position | percent of peptide-AMC that is cleaved [14]: norleucine (nL) and alpha-amino butyric (B or aBut) are tolerated at the P1 position | percent of peptide-AMC that is cleaved [15]: norleucine (nL) and alpha-amino butyric (B or aBut) are tolerated at the P1 position | percent of peptide-AMC that is cleaved [16]: norleucine (nL) and alpha-amino butyric (B or aBut) are tolerated at the P1 position
